The values that follow are results of earlier work, collected in paper PMC13312411.

Like-named read-outs stand apart in the source and are kept apart here.

Data set [1] deals with Hsc70 (Homo sapiens) (UniProt P11142).
Data set [2] shares this target. The source holds these as a separate data set.

Sequence of UniProt P11142 (P11142 2-646): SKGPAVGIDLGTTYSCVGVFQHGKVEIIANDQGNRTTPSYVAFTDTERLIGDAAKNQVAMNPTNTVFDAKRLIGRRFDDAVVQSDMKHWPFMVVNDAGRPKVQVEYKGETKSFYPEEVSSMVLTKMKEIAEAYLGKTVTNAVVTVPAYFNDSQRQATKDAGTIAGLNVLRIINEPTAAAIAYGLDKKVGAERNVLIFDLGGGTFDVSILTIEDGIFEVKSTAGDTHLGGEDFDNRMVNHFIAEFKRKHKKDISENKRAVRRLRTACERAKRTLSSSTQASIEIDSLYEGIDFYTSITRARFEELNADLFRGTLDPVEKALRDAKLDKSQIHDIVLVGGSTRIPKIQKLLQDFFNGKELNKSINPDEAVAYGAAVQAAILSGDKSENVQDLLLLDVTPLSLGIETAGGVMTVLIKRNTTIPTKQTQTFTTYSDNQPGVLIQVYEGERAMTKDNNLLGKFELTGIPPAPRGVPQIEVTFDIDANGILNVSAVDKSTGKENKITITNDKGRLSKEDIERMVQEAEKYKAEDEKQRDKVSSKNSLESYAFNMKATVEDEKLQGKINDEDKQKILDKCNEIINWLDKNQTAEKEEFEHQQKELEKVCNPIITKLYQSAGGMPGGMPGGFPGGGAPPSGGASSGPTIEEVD

The term Kd denotes the constant that tells how readily two partners part at equilibrium. In the case of “DNAJB6 JD-GF (open) JD-GF (from UniProt O75190)”, the Kd with Hsc70 (Homo sapiens) [1] is 400 µM.
With “DNAJB6 J-domain JD (from UniProt O75190)”, the dissociation constant (Kd) with Hsc70 (Homo sapiens) [2] was 3 µM.
